From the supplement of paper PMC9732359 come the findings set out here.

This data set can be described thus: protein stability index of a GFP-peptide fusion (yeast GPS) (PSI 1-4); higher = more stable; sorted into four equal gates, so the index is relative within each strain. In outline: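 For each peptide, the protein stability index sums the read frequency in every gate after multiplying it by the gate number. Read frequencies came from plasmids that were PCR-amplified from each gate and Illumina-sequenced, with reads assigned to strains by barcodes. The gates were four equal bins of GFP/Cherry fluorescence ratio applied to mid-log yeast in leucine-free medium carrying a pooled library of tiled 17-residue yeast protein peptides fused downstream of GFP on a Cherry-expressing plasmid.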

± gives the uncertainty stated by the source.

On to ESPVDVQSQVDSSSVSE [FAS1], for which the protein stability index turned out to be 3.11 ± 0.06 (doa10∆), 3.3 ± 0.073 (pdr5∆), 3.14 ± 0.051 (san1∆) and 3.23 ± 0.042 (ubr1∆).

Take QTAVTCESCSTVLCTPT [RPS27B]: the protein stability index runs as follows: (doa10∆) 1.89 ± 0.055; (pdr5∆) 2.29 ± 0.058; (san1∆) 2.06 ± 0.071; (ubr1∆) 2.09 ± 0.066.

As for QQQQQQQNPKFLQSQRQ [SWI1], the protein stability index is, setting by setting: (doa10∆) 2.84 ± 0.048; (pdr5∆) 2.82 ± 0.052; (san1∆) 2.79 ± 0.045; (ubr1∆) 3.25 ± 0.064.

Take DDDDDDDDEVDYSEIQR [DSN1]: the protein stability index is 2.98 ± 0.067 (doa10∆), 3.49 ± 0.087 (pdr5∆), 3.41 ± 0.044 (san1∆) and 3.16 ± 0.084 (ubr1∆).

DYLNAELGEFFVNGVAT [FAS2]: the protein stability index runs as follows: (doa10∆) 3.09 ± 0.093; (pdr5∆) 2.79 ± 0.24; (san1∆) 3.06 ± 0.12; (ubr1∆) 3.35 ± 0.08.

For the sequence MFIEEPTRMVRVAKGSG [SRP54], the protein stability index runs as follows: (doa10∆) 3.09 ± 0.19; (pdr5∆) 2.95 ± 0.23; (san1∆) 2.75 ± 0.24; (ubr1∆) 3.26 ± 0.15.

For the sequence EHASLLVRDSKPSKPFN [MED8], the protein stability index reads like this: (doa10∆) 2.43 ± 0.057; (pdr5∆) 2.67 ± 0.046; (san1∆) 2.56 ± 0.05; (ubr1∆) 2.55 ± 0.052.

Take LAAPKKLNDSQRKTVNS [POP1]: the protein stability index by setting is: (doa10∆) 3.18 ± 0.075; (pdr5∆) 2.98 ± 0.12; (san1∆) 3.02 ± 0.065; (ubr1∆) 3.34 ± 0.075.

With RGHVLQFEWHQNSLLTN [SNF2], the protein stability index (doa10∆) stood at 1.93 ± 0.055, the protein stability index (pdr5∆) turned out to be 2.3 ± 0.064, the protein stability index (san1∆) was determined as 3.11 ± 0.056 and the protein stability index (ubr1∆) turned out to be 2.6 ± 0.048.

In the case of PLLESFITFSLDDWISI [IRR1], the protein stability index is, setting by setting: (doa10∆) 3.04 ± 0.078; (pdr5∆) 2.46 ± 0.063; (san1∆) 2.5 ± 0.054; (ubr1∆) 2.54 ± 0.052.

With PYEMYKYVHVSEVGNCS [FAS2], the protein stability index worked out at 2.23 ± 0.056 (doa10∆), 2.53 ± 0.062 (pdr5∆), 2.11 ± 0.068 (san1∆) and 2.11 ± 0.048 (ubr1∆).

Turning to YKVEHPFFARFKLRIQT [RPB11], the protein stability index came to 2 ± 0.097 (doa10∆), 1.28 ± 0.057 (pdr5∆), 1.37 ± 0.11 (san1∆) and 1.31 ± 0.16 (ubr1∆).

For the sequence EHHSSVKYASPNLNMKY [FAS2], the protein stability index worked out at 3.17 ± 0.068 (doa10∆), 3 ± 0.06 (pdr5∆), 2.94 ± 0.054 (san1∆) and 2.92 ± 0.04 (ubr1∆).

For ESYNQNDWKLETERLIS [SIN4], the protein stability index was 3.4 ± 0.09 (doa10∆), 3.21 ± 0.14 (pdr5∆), 3.29 ± 0.066 (san1∆) and 3.15 ± 0.11 (ubr1∆).

VVRRRFRGNISQPKIGY [RPL32]: the protein stability index reads like this: (doa10∆) 2.85 ± 0.096; (pdr5∆) 2.88 ± 0.06; (san1∆) 2.9 ± 0.067; (ubr1∆) 2.92 ± 0.05.

For DNGLGPLKYAPHLPFSK [SWI3], the protein stability index runs as follows: (doa10∆) 3.13 ± 0.058; (pdr5∆) 3.22 ± 0.069; (san1∆) 2.85 ± 0.07; (ubr1∆) 3.21 ± 0.058.

Regarding ENYEGKQDKTLQKVENQ [YIL149C/MLP2], the protein stability index reads like this: (doa10∆) 3.2 ± 0.18; (pdr5∆) 3.29 ± 0.14; (san1∆) 2.8 ± 0.17; (ubr1∆) 3.21 ± 0.21.

As to FNKEQLNKFKKAIFQFV [ECM29], the protein stability index reads like this: (doa10∆) 1.58 ± 0.15; (pdr5∆) 1.27 ± 0.096; (ubr1∆) 1.15 ± 0.069.

As for VVEACGNIVAELAQDPQ [YCS4], the protein stability index by setting is: (doa10∆) 2.75 ± 0.082; (pdr5∆) 3.38 ± 0.15; (san1∆) 3.04 ± 0.1; (ubr1∆) 2.12 ± 0.093.

For the sequence TEFEFYLLEELESYLIV [SSN8], the protein stability index was 2.63 ± 0.099 (doa10∆), 2.72 ± 0.087 (pdr5∆), 3.21 ± 0.12 (san1∆) and 2.72 ± 0.064 (ubr1∆).

KVIEQPITSETAMKKVE [RPL25]: the protein stability index runs as follows: (doa10∆) 3.02 ± 0.092; (pdr5∆) 2.94 ± 0.066; (san1∆) 2.88 ± 0.066; (ubr1∆) 2.93 ± 0.074.

For the sequence ERVMKNKVEENLEGLYL [RPT2], the protein stability index reads like this: (doa10∆) 3.12 ± 0.11; (pdr5∆) 3.28 ± 0.067; (san1∆) 3.07 ± 0.14; (ubr1∆) 3.35 ± 0.12.

ALTQMDQDKVNFASGDN [RPB3]: the protein stability index (doa10∆) was 3.33 ± 0.14, the protein stability index (pdr5∆) worked out at 3.5 ± 0.13, the protein stability index (san1∆) is 3.08 ± 0.15 and the protein stability index (ubr1∆) turned out to be 3.65 ± 0.28.

With DAWVSAAHYNRERIKRG [PRP8], the protein stability index (doa10∆) was found to be 2.76 ± 0.13, the protein stability index (pdr5∆) came to 1.81 ± 0.099, the protein stability index (san1∆) amounted to 2.6 ± 0.062 and the protein stability index (ubr1∆) came to 1.96 ± 0.15.

DDKYGRKFALEKLYIFY [SRP72]: the protein stability index runs as follows: (doa10∆) 2.71 ± 0.076; (pdr5∆) 2.82 ± 0.081; (san1∆) 2.4 ± 0.061; (ubr1∆) 2.4 ± 0.055.

ATADTTHLHEALDIVCS [NUT1]: the protein stability index came to 2.12 ± 0.056 (doa10∆), 2.55 ± 0.063 (pdr5∆), 2.48 ± 0.12 (san1∆) and 2.69 ± 0.041 (ubr1∆).

Consider NIVKQNEGIDLDTYRER [SMC2], for which the protein stability index is, setting by setting: (doa10∆) 3.13 ± 0.13; (pdr5∆) 3.51 ± 0.12; (san1∆) 3.24 ± 0.079; (ubr1∆) 3.41 ± 0.086.

RSISWAPSIGRWYQLIA [YGL100W/SEH1]: the protein stability index was 1.26 ± 0.072 (doa10∆), 1.15 ± 0.075 (pdr5∆), 1.16 ± 0.12 (san1∆) and 1.11 ± 0.063 (ubr1∆).

For the sequence SSLVRRNSVKLLSKLLL [YCS4], the protein stability index reads like this: (doa10∆) 1.68 ± 0.047; (pdr5∆) 1.61 ± 0.04; (san1∆) 1.64 ± 0.085; (ubr1∆) 1.39 ± 0.027.

Consider VKQEDMPFNDQGIVPDI [RET1], for which the protein stability index is, setting by setting: (doa10∆) 2.86 ± 0.084; (pdr5∆) 3.06 ± 0.059; (san1∆) 2.91 ± 0.064; (ubr1∆) 3.17 ± 0.043.

AQLTLKRCKHFELGGEK [RPL42A]: the protein stability index by setting is: (doa10∆) 1.93 ± 0.12; (pdr5∆) 2.46 ± 0.11; (san1∆) 2.89 ± 0.069; (ubr1∆) 2.56 ± 0.076.

Sequence LKILKQVMEEKLDENNA [PUP2] yielded a protein stability index (san1∆) of 2.8 ± 0.23.

With PDFKPWEHTAAEDQILA [SRB8], the protein stability index by setting is: (doa10∆) 2.83 ± 0.12; (pdr5∆) 2.95 ± 0.12; (san1∆) 3.03 ± 0.075; (ubr1∆) 3.02 ± 0.091.

As for TDAMTESQPKQTGTRRN [MCD1], the protein stability index runs as follows: (doa10∆) 3.04 ± 0.12; (pdr5∆) 3.35 ± 0.12; (san1∆) 3.2 ± 0.068; (ubr1∆) 3.09 ± 0.061.

As to TFLKYFGWLLSDNSVSV [IRR1], the protein stability index was found to be 2.67 ± 0.14 (doa10∆), 2.4 ± 0.11 (pdr5∆), 2.24 ± 0.097 (san1∆) and 2.66 ± 0.11 (ubr1∆).

For the sequence KTASLGNSKDDLLDMIQ [ISW2], the protein stability index came out at 1.62 ± 0.066 (doa10∆), 2.22 ± 0.13 (pdr5∆), 3.36 ± 0.059 (san1∆) and 1.94 ± 0.059 (ubr1∆).

For SETDLNDIPLGSGQPDN [SRB8], the protein stability index runs as follows: (doa10∆) 3.09 ± 0.11; (pdr5∆) 3.12 ± 0.069; (san1∆) 3.06 ± 0.07; (ubr1∆) 2.87 ± 0.056.

As to SAGQPNLLLSASRDKTL [ASC1], the protein stability index reads like this: (doa10∆) 2.4 ± 0.063; (pdr5∆) 2.77 ± 0.05; (san1∆) 2.7 ± 0.041; (ubr1∆) 1.91 ± 0.049.
